Measurements as given in patent US20250326842A1.
Where a chain is given by its changes, count along the chain named.

B1: BGA501 (antibody, V domains shown)
VH: QVQLVQSGAEVKKPGASVKVSCKASGYSFTGYFLNWVRQAPGQGLEWIGRISPYQGDTFYNQKFKGRVTMTTDKSTSTAYMELRSLRSDDTAVYYCGRSGSFTLFYAIDYWGQGTLVTVSS
VL: DIVMTQSPSSLAVSLGERATINCKSSQSLFHSGNQKNYLAWYQQKPGQSPKLLIYWASTRESGVPDRFSGSGSGTDFTLTISSLQAEDVAVYYCQQYYSYPITFGQGTKLEIK
B2: BGA503 (antibody, V domains shown)
VH: B1 VH with T72V, I108L
VL: B1 VL
B3: BGA502 (antibody, V domains shown)
VH: B1 VH with I108L
VL: B1 VL
B4: BGA50 (antibody, V domains shown)
VH: EVQLQQSGPEPVKPGASVKISCKASGYSFTGYFLNWVKQSHGKSLEWIGRISPYNGDTFYNQKFKGKATLTVDKSSSTAHMELLSLTSEDSAVYYCGRSGSFTLFYAMDYWGQGTSVTVSS
VL: DIVMSQSPSSLAVSVGENITMTCKSSQSLFHSGNQKNYLAWYQQKPGQSPKLLIYWASTRESGVPDRFTGSGSETDFTLTISSVKAEDLAVYFCQQYYSYPITFGAGTKLELK
B5: BGA381 (antibody, V domains shown)
VH: EVQLVQSGAEVKKPGASVKVSCKASGYTFTDYWIYWVRQAPGQGLEWMGTIDTSDHKTSYNQKFRGRVTMTRDTSTSTVYMELSSLRSEDTAVYYCARDFIITVNYPVVDYWGQGTLVTVSS
VL: QIVLTQSPATLSLSPGERATLSCSAGSSVNYMHWFQQKPGQAPRLLIYSTSNLASGVPARFSGSGSGTDYTLTISSLEPEDFAVYYCQQRSSLPFTFGQGTKLEIK
B6: BGA383 (antibody, V domains shown)
VH: B5 VH with H56A
VL: B5 VL
B7: BGA382 (antibody, V domains shown)
VH: B5 VH
VL: B5 VL with I2N, M32L
B8: BGA86 (antibody, human IgG1, V domains shown)
VH: EVQLQESGGGSVKPGGSLQLSCAASGFTFSSYGMSWIRQSPEKKLEWVAEISSGGTYTYYPDTVTGRFTISRDNAKNTLYLEMSSLRSEDTAMYYCARGDPFGYWGQGTLVTVSA
VL: DVVMTQSHKFVSTSVGGRVSITCKASQDVMTAVAWYQQKPGQSPKLLIYSTSYRFTGVPDRFTGSGSGTDFTLTINGVQAEDLAVYSCQQHYSTPRTFGGGTKLEIK
B9: BGA861 (antibody, V domains shown)
VH: EVQLVESGGGLVKPGGSLRLSCAASGFTFSSYGISWVRQAPGKGLEWVSEISSGGTYTYYPDTVTGRFTISRDNAKNTLYLQMSSLRAEDTAVYYCARGDPFGYWGQGTLVTVSS
VL: DIQMTQSPSSLSASVGDRVTITCKASQDVMTAVAWYQQKPGKAPKLLIYSTSYRFTGVPSRFSGSGSGTDFTLTISSLQPEDFATYYCQQHYSTPRTFGGGTKVEIK
B10: BGA862 (antibody, V domains shown)
VH: B9 VH with I34L
VL: B9 VL
B11: BGA38 (antibody, V domains shown)
VH: EVQLQESGAEHVMPGASVKMSCKAAGYTFTDYWMYWVKQRPGQGLEWIGTIDTSDHKTSYNQKFRGKATLTVDESSSTAYMQLSSLTSEDSAVYYCARDFIITVNYPVVDYWGQGTSVTVSS
VL: QNVLTQSPAIMSASPGEKVTITCSAGSSVNYMHWFQQKPGTSPKLWIYSTSNLASGVPARFSGSGSGTSYSLTISRMEAEDAATYYCQQRSSLPFTFGSGTKLEIK
B12: BGA12 (antibody, V domains shown)
VH: QVQLQQSGPEVVRPGVSVKISCKGSGYTFTDYAMHWVKQSHGKSLEWIGVVLTHNDNTNYNQKFKAKATMTVDRSSSTAYMELARLTSEDSAIYYCAREVYYDFDDGNYFPMDYWGQGTSVTVSS
VL: DIVMSQSPSSLAVSVGEKVTMSCKSSQSLLYSDNQKNYLAWYQQKPGQSPKLLIYWASTRESGVPVRFTGSGSGTDFTLTISSVKAEDLAVYYCQQYYSYHTFGGGTKLEIK

Molecular target: Cyno PVRIG recombinant protein (cynomolgus monkey)
Experiment: SPR, antibody captured via anti-human Fc, cyno PVRIG analyte

Sequence of Cyno PVRIG recombinant protein (cynomolgus monkey) (Q6DKI7 other isoform, or with tags, fused parts or gaps limits assumed): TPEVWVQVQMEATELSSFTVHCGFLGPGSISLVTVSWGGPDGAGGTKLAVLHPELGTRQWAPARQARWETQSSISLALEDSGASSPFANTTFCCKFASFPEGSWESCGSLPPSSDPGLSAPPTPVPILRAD

Kd [nM] | koff [s⁻¹] | kon [M⁻¹ s⁻¹] | Binder
0.426 | 0.00267 | 6.27e+06 | B1
0.396 | 0.00294 | 7.44e+06 | B2
0.433 | 0.00266 | 6.16e+06 | B3
0.347 | 0.0032 | 9.21e+06 | B4
0.0738 | 0.000367 | 4.98e+06 | B5
0.0658 | 0.000345 | 5.25e+06 | B6
0.0518 | 0.000243 | 4.7e+06 | B7
0.552 | 0.0017 | 3.08e+06 | B8
1.01 | 0.00221 | 2.18e+06 | B9
2.16 | 0.00483 | 2.23e+06 | B10
0.0507 | 0.00021 | 4.15e+06 | B11

Molecular target: Cyno PVRIG recombinant protein (cynomolgus monkey)
Experiment: as above
Remark: another data set of the same source

Kd [nM] | koff [s⁻¹] | kon [M⁻¹ s⁻¹] | Binder
0.73 | 0.00588 | 8.05e+06 | B4
6.31 | 0.000354 | 56100 | B12
0.674 | 0.00133 | 1.97e+06 | B8
0.109 | 0.000157 | 1.44e+06 | B11

Molecular target: Cyno PVRIG recombinant protein (cynomolgus monkey)
Experiment: ELISA, chimeric antibody on recombinant cyno PVRIG

EC50 [nM] | Binder
0.0273 | B4
0.039 | B12
0.0449 | B8
0.223 | B11
